In US20090018093:
Read-outs that look alike come from different tables or passages of the source.

Test system: Immunoglobulin E (IgE) (Homo sapiens), P01854-1
Test: filter

Immunoglobulin E (IgE) (Homo sapiens), P01854-1, sequence (P01854 other isoform, or with tags, fused parts or gaps): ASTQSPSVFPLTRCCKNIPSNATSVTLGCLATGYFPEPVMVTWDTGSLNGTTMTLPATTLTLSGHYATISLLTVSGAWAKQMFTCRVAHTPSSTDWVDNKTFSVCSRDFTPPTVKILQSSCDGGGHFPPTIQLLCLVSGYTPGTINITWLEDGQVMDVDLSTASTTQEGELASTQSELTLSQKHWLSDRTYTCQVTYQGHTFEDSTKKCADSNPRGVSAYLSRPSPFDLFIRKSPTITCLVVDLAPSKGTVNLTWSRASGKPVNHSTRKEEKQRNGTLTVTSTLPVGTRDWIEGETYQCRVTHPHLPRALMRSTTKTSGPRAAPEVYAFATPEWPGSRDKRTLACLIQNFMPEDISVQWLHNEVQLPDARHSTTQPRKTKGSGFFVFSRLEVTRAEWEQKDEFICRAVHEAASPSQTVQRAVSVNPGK

In the case of AGCCUGGGGACCCAUGGGGGGCU [ARC1255], the Kd (2'-OMe G9 and all C,U, rest 2'-deoxy, 3' idT [2'-OMe at 3,4,5,9,11,12,13,15,22,23, 3'-idT at 24], DPBS Mg/Ca, 0.1 mg/mL BSA, RT) is reported as 8 nM.
With AGCCUGGGGACCCAUGGGGGGCU [ARC907] the Kd (dRmY (2'-OMe C,U), 7-deaza-dG16 [7-deaza-dG at 16, 2'-OMe C3,C4,U5,C11,C12,C13,U15,C22,U23, A,G 2'-deoxy], DPBS Mg/Ca, 0.1 mg/mL BSA, RT) was 22 nM.
“GGGGCUACTTTATCCGTTCCTCCTAGTGGGTAGCCCC [ARC1270]” was tested, and the Kd (2'-OMe U at 6, 3' idT [6 (2'-OMe U), 38 (3' inverted dT)], DPBS Mg/Ca, BSA) was 0.2 nM.
For “GGGGCTACTTTATCCGTTCCTCCTAGTGGGTAGCCCC [ARC1391]”, the Kd (2'-OMe at 1-4,7,33-37, PS 8-9, 3' idT [2'-OMe at 1-4,7,33-37, PS linkage 8-9 (internal N = PS, not a base), 3' inverted dT cap (terminal N, left out)], DPBS Mg/Ca, BSA) was 4.4 nM.
Work on “GGGGCTACTTTATCCGTTCCTCCTAGTGGGTAGCCCC [ARC1411]” yielded a Kd (2'-OMe at 1-4,7,33-37, PS 28-29, 3' idT [2'-OMe at 1-4,7,33-37, PS 28-29, 3' idT cap after 37 (left out)], DPBS Mg/Ca, BSA) of 5.4 nM.
AGCCUGGGGACCCAUGGGGGGCU [ARC1253] showed a Kd (2'-OMe C,U and G7, other A,G deoxy, 3' idT [2'-OMe: 3,4,5,7,11,12,13,15,22,23, 2'-deoxy: 1,2,6,8,9,10,14,16,17,18,19,20,21, 24 = 3' inverted dT], dPBS Ca/Mg + BSA, RT) of 2 nM.
“GGGGCTACTTCATCCGTCCCTCCTAGTGGGTAGCCCC [ARC478]” was tested, and the Kd was 0.4 nM.
For AGCCUGGGGACCCAUGGGGGGCU [ARC3263], the Kd (ARC1666 pattern with 2'-OMe G9, 3' idT [dI (written G) at 16,18,20, 2'-OMe 1-5,7,9,10-15,17,22,23, deoxy 6,8,16,18-21, PS 8/9,15/16,16/17,18/19,20/21, 3' inverted dT left out], dPBS Ca/Mg + BSA, RT) was 0.026 nM.
With “GGGGCAGCTTTATCCGTTCCTCCTAGTGGGCTGCCTC [DNA clone SEQ 131]” the Kd was 0.3 nM.
In the case of AGCCUGGGGACCCAUGGGGGGCU [ARC1260], the Kd (2'-OMe C,U and G18, other A,G deoxy, 3' idT [2'-OMe: 3,4,5,11,12,13,15,18,22,23, 2'-deoxy: 1,2,6,7,8,9,10,14,16,17,19,20,21, 24 = 3' inverted dT], dPBS Ca/Mg + BSA, RT) is reported as 102 nM.
For “GGGAGAGGAGAGAACGUUCUACGAUCUGGGCGAGCCAGUCUGACUGAGGAAGCGCUGUCGAUCGAUCGAUCGAUGAAGGGCG [rRmY clone SEQ 56]”, the Kd (2'-OMe C,U, 2'-OH A,G, DPBS, 0.1 mg/mL tRNA, RT) was 500 nM.
In the case of “GGGGCTACTTTATCCGTTCCTCCTAGTGGGTAGCCCCT [ARC1304]”, the Kd (2'-OMe at 1-4,34-37, 3' idT [2'-OMe: 1-4,34-37, 38 = 3' inverted dT], DPBS Mg/Ca, BSA) is reported as 0.6 nM.
With “AGCCUGNGGNGACCCAUNNNGNNGNNGCUN [ARC2974]” the Kd (ARC1666 chemistry + PS 6-7, 3' idT, DPBS Mg/Ca, BSA, RT) was 0.07 nM.
With “GGAAUCAUACACAAGACGUCAGUAAGAUUGAGUGUAUGGUU [rRfY minimer SEQ 96]” the Kd (2'-F C and U, KD2 39.7 nM, 1xSHMCK + tRNA) was 0.365 nM.
For “GGGGCTACTTTATCCGTTCCTCCTAGTGGGTAGCCCCT [ARC656]”, the Kd (3' idT [38 = 3' inverted dT], dPBS Ca/Mg + BSA) was 0.2 nM.
“GGGGCTACTTTATCCGTTCCTCCTAGTGGGTAGCCCCT [ARC1267]” showed a Kd (2'-OMe at 3, 3' idT [3 (2'-OMe G), 38 (3' inverted dT)], DPBS Mg/Ca, BSA) of 0.1 nM.
For “AGCCUGGGNGACCCAUNNNGNNGNNGNCNUNN [ARC3272]”, the Kd (ARC2342 chemistry with 2'-OMe G8,G9, 3' idT, DPBS Mg/Ca, BSA, RT) was 0.12 nM.
Work on AGCCUGGGGACCCAUGGGGGGCU [ARC1250] yielded a Kd (2'-OMe C,U and A1, other A,G deoxy, 3' idT [2'-OMe: 1,3,4,5,11,12,13,15,22,23, 2'-deoxy: 2,6,7,8,9,10,14,16,17,18,19,20,21, 24 = 3' inverted dT], dPBS Ca/Mg + BSA, RT) of 11 nM.
AGCCUGGGNGACCCAUNNNGNNGNNGCUN [ARC3267] was tested, and the Kd (ARC1666 chemistry with 2'-OMe G9,I16, 3' idT, DPBS Mg/Ca, BSA, RT) was 0.2 nM.
“GGGGCTACTTTATCCGTTCCTCCTAGTGGGTAGCCCC [ARC1407]” was tested, and the Kd (2'-OMe at 1-4,7,33-37, PS 24-25, 3' idT [2'-OMe at 1-4,7,33-37, PS 24-25, 3' idT cap after 37 (left out)], DPBS Mg/Ca, BSA) was 1.8 nM.
“GGGGCTACTTTATCCGTTCCTCCTAGTGGGTAGCCCCT [ARC1271]” was tested, and the Kd (2'-OMe at 7, 3' idT [7 (2'-OMe A), 38 (3' inverted dT)], DPBS Mg/Ca, BSA) was 0.2 nM.
“GGGGCTACTTTATCCGTTCCTCCTAGTGGGTAGCCCCN [ARC1287]” gave a Kd (2'-OMe at 23, 3' idT, DPBS Mg/Ca, BSA) of 1 nM.
“GGGGCTACTTTATCCGTTCCTCCTAGTGGGTAGCCCCT [ARC1286]” gave a Kd (DNA with 2'-OMe C22, 3' idT [2'-OMe C22, 3' inverted dT38], dPBS Ca/Mg + BSA) of 7 nM.
“GGGGCTACTTTATCCGTTCCTCCTAGTGGGTAGCCCCT [ARC1276]” was tested, and the Kd (2'-OMe at 12, 3' idT [12 (2'-OMe A), 38 (3' inverted dT)], DPBS Mg/Ca, BSA) was 3 nM.
Sequence “GGGGCTACTTTATCCGTTCCTCCTAGTGGGTAGCCCCT [ARC1278]” has a Kd (2'-OMe at 14, 3' idT [14 (2'-OMe C), 38 (3' inverted dT)], DPBS Mg/Ca, BSA) of 2 nM.
“GGGGCTACTTGATCCGTCCCTCCTAGTGGGTAGCCCC [ARC477]” was tested, and the Kd was 0.6 nM.
For “GGGGCTACTTUATCCGTTCCTCCTAGTGGGTAGCCCC [ARC1275]”, the Kd (2'-OMe U at 11, 3' idT [11 (2'-OMe U), 38 (3' inverted dT)], DPBS Mg/Ca, BSA) was 0.3 nM.
For “GGGAGAGGAGAGAACGUUCUACAAGCAGUUCUGGGGACCCAUGGGGGAAGUGCGCUGUCGAUCGAUCGAUCGAUG [ARC1992]”, the Kd (dRmY: 2'-deoxy A,G, 2'-OMe C,U, error 8, dPBS Ca/Mg + BSA, RT) was 10 nM.
For “AGCCUGGGNGACCCNAUNNNGNNGNNGCUN [ARC2980]”, the Kd (ARC1666 chemistry + PS 13-14, 3' idT, DPBS Mg/Ca, BSA, RT) was 0.04 nM.
“GGGGCTACTTTATCCGTTCCUCCTAGTGGGTAGCCCCN [ARC1285]” gave a Kd (2'-OMe U at 21, 3' idT, DPBS Mg/Ca, BSA) of 0.8 nM.
With AGCCUGGGGACCCAUGGGGGGCU [ARC1264] the Kd (2'-OMe A1,G2,G20,G21 and all C,U, rest 2'-deoxy as printed, 3' idT [2'-OMe A1,G2,C3,C4,U5,C11,C12,C13,U15,G20,G21,C22,U23, rest 2'-deoxy, 3' inverted dT at 24], DPBS Mg/Ca, 0.1 mg/mL BSA, RT) was 47 nM.
Work on “AGCCUGGGNGACCCAUNNNGNNGNNGNCNUNN [ARC3275]” yielded a Kd (ARC2342 chemistry with 2'-OMe G8,G9,I16, 3' idT, DPBS Mg/Ca, BSA, RT) of 0.67 nM.
AGCCUGGGNGACCCAUNNNGNNGNNGCUN [ARC3264] gave a Kd (ARC1666 chemistry with 2'-OMe I16, 3' idT, DPBS Mg/Ca, BSA, RT) of 0.36 nM.
AGCCUGGGGACCCAUGGGGGGCU [ARC1252] gave a Kd (2'-OMe C,U and G6, other A,G deoxy, 3' idT [2'-OMe: 3,4,5,6,11,12,13,15,22,23, 2'-deoxy: 1,2,7,8,9,10,14,16,17,18,19,20,21, 24 = 3' inverted dT], dPBS Ca/Mg + BSA, RT) of 98 nM.
Sequence “GCGGGCAAATTCATCCGTCCCTCCTAGTGGTTTGCCC [DNA clone SEQ 147]” has a Kd of 0.5 nM.
With AGCCUGGGGACCCAUGGGGGGCU [ARC1262] the Kd (2'-OMe C,U and G20, other A,G deoxy, 3' idT [2'-OMe: 3,4,5,11,12,13,15,20,22,23, 2'-deoxy: 1,2,6,7,8,9,10,14,16,17,18,19,21, 24 = 3' inverted dT], dPBS Ca/Mg + BSA, RT) was 32 nM.
In the case of “GGGAGAGGAGAGAACGUUCUACCAACGGCAUCCUGGGCCCCACAGGGGAUGUCGCUGUCGAUCGAUCGAUCGAUG [ARC2002]”, the Kd (dRmY: 2'-deoxy A,G, 2'-OMe C,U, error 6, dPBS Ca/Mg + BSA, RT) is reported as 8 nM.
Sequence AGCCUGGGGACCCAUGGGGGGCU [ARC1261] has a Kd (2'-OMe C,U and G19, other A,G deoxy, 3' idT [2'-OMe: 3,4,5,11,12,13,15,19,22,23, 2'-deoxy: 1,2,6,7,8,9,10,14,16,17,18,20,21, 24 = 3' inverted dT], dPBS Ca/Mg + BSA, RT) of 63 nM.
With “GGGGCTACTTTATCCGTTCCTCCTAGTGGGTAGCCCCT [ARC1292]” the Kd (DNA with 2'-OMe G28, 3' idT [2'-OMe G28, 3' inverted dT at 38], dPBS Ca/Mg + BSA) was 22 nM.
“GGGGCTACTTTATCCGTTCCTCCTAGTGGGTAGCCCC [ARC1412]” showed a Kd (2'-OMe at 1-4,7,33-37, PS 29-30, 3' idT [2'-OMe at 1-4,7,33-37, PS 29-30, 3' idT cap after 37 (left out)], DPBS Mg/Ca, BSA) of 2.5 nM.
Sequence AGGCUGGGGACCCAUGGGGGCCU [ARC1245] has a Kd (2'-OMe/2'-deoxy mix, 3:21 pair changed, DPBS Mg/Ca, 0.1 mg/mL BSA, RT) of 198 nM.
“GGGGCTACTUTATCCGTTCCTCCTAGTGGGTAGCCCC [ARC1274]” gave a Kd (2'-OMe U at 10, 3' idT [10 (2'-OMe U), 38 (3' inverted dT)], DPBS Mg/Ca, BSA) of 2 nM.
Sequence “AGCCUGGGNGACNCCAUNNNGNNGNNGCUN [ARC2978]” has a Kd (ARC1666 chemistry + PS 11-12, 3' idT, DPBS Mg/Ca, BSA, RT) of 0.05 nM.
With AGCCUGGGGACCCAUGGGGGGCU [ARC1564] the Kd (ARC1335 chemistry with dI18, 3' idT [18=dI (G parent), 24=3' inverted dT], DPBS Mg/Ca, 0.1 mg/mL BSA, RT) was 0.5 nM.
“AGCCUGGGNGACCCAUNNNGNNGNNGNCNUNN [ARC2342]” was tested, and the Kd (ARC1666 chemistry + PS 21-22,22-23,23-idT, 3' idT, second independent measurement 0.04 nM) was 0.19 nM.
With “GGGGCTACTTTATCCGTTCCTCCTAGTGGGUAGCCCCN [ARC1295]” the Kd (2'-OMe U at 31, 3' idT, DPBS Mg/Ca, BSA) was 3 nM.
For “GGGGCTACTTUATCCGUUCCTCCTAGTGGGTAGCCCC [ARC1389]”, the Kd (2'-OMe at 1-4,7,11,17,18,20,33-37, 3' idT [2'-OMe: 1-4,7,11,17,18,20,33-37, 38 = 3' inverted dT], DPBS Mg/Ca, BSA) was 5.4 nM.
“GGGGCTACTTTATCCGTTCCTCCTAGTGGGTAGCCCC [ARC1413]” gave a Kd (2'-OMe at 1-4,7,33-37, PS 30-31, 3' idT [2'-OMe at 1-4,7,33-37, PS 30-31, 3' idT cap after 37 (left out)], DPBS Mg/Ca, BSA) of 3.3 nM.
With AGCCUGGGGACCCAUGGGGGGCU [ARC2981] the Kd (ARC1666 pattern plus PS between A14 and U15, 3' idT [dI (written G) at 16,18,20, 2'-OMe 1-5,7,10-15,17,22,23, deoxy 6,8,9,16,18-21, PS 8/9,14/15,15/16,16/17,18/19,20/21, 3' inverted dT left out], dPBS Ca/Mg + BSA, RT) was 0.02 nM.
